Data from PMC6358683 (Proceedings of the National Academy of Sciences of the …, 2019).
Where a chain is given by its changes, count along the chain named. In names and notes the source's numbering stands.

What was measured:
[1] = biological target: HA of A/Thailand/CU44/2006 (Influenza A virus A/Thailand/CU44/2006 …, UniProt A7LI25, strain); assay: ELISA
[2] = biological target: HA of A/Solomon Islands/03/2006 (Influenza A virus A/Solomon …, UniProt A7Y8I1, strain); assay: ELISA

B1: C05 V110P (antibody, V domains shown)
VH: QVQLQESGGGLVQPGESLRLSCVGSGSSFGESTLSYYAVSWVRQAPGKGLEWLSIINAGGGDIDYADSVEGRFTISRDNSKETLYLQMTNLRVEDTGVYYCAKHMSMQQVPSAGWERADLVGDAFDVWGQGTMVTVSS
VL: DIQLTQSPSSLSASVGDRVTLTCQASQDIRKFLNWYQQKPGKGPKLLIYDASNLQRGVPSRFSGGGSGTDFTLIISSLQPEDVGTYYCQQYDGLPFTFGGGTKVVIK
- binding result [1]: binds
- binding result [2]: binds

B2: C05 A117E (antibody, V domains shown)
VH: B1 VH with P111V, A118E
VL: B1 VL
- binding result [1]: binds
- binding result [2]: binds

B3: C05 V110P-A117E (antibody, V domains shown)
VH: B1 VH with A118E
VL: B1 VL
- binding result [1]: binds
- binding result [2]: binds
